# According to patent publication US20180055768:
# System: HA-tagged wt ARRDC1
# Sequence of GFP-tagged WWP2 (chain, as listed by the source): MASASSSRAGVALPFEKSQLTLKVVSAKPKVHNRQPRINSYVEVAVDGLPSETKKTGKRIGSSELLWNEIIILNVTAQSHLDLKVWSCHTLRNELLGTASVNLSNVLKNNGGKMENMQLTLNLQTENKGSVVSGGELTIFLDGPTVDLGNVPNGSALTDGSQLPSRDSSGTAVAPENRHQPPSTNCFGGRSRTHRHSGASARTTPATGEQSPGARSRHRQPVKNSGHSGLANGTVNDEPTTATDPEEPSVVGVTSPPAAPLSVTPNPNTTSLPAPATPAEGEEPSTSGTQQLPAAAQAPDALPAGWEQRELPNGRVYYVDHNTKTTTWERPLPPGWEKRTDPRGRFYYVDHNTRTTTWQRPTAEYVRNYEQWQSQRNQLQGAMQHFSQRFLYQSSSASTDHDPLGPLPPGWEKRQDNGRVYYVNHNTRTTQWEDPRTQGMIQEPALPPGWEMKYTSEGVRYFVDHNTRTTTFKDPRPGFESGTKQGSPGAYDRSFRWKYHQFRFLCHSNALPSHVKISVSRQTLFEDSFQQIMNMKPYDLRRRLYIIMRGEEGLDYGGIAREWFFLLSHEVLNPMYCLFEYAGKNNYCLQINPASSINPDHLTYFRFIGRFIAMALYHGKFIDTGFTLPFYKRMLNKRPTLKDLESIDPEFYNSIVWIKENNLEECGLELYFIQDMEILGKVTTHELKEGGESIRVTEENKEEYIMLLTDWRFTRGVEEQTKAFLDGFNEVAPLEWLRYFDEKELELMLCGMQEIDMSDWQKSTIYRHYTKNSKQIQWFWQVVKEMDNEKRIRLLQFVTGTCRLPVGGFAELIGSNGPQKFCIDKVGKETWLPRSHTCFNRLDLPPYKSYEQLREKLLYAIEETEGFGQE
substance,measurement,value
GFP-tagged WWP2,ubiquitination of ARRDC1 (immunoblot of WCEs and ARMMs),ubiquitination of ARRDC1 was enhanced by WWP2
